Data published in the supplement of paper PMC12338614.
± gives the uncertainty stated by the source.

B1: library; numbered along this chain (parent)
chain: MEVVDPQQLGMFTEGELMSVGMDTFIHRIDSTEVIYQPRRKRAKLIGKYLMGDLLGEGSYGKVKEVLDSETLCRRAVKILKKKKLRRIPNGEANVKKEIQLLRRLRHKNVIQLVDVLYNEEKQKMYMVMEYCVCGMQEMLDSVPEKRFPVCQAHGYFCQLIDGLEYLHSQGIVHKDIKPGNLLLTTGGTLKISDLGVAEALHPFAADDTCRTSQGSPAFQPPEIANGLDTFSGFKVDIWSAGVTLYNITTGLYPFEGDNIYKLFENIGKGSYAIPGDCGPPLSDLLKGMLEYEPAKRFSIRQIRQHSWFRKKHPPAEAPVPIPPSPDTKDRWRSMTVVPYLEDLHGADEDEDLFDIEDDIIYTQDFTVPGQVPEEEASHNGQRRGLPKAVCMNGTEAAQLSTKSRAEGRAPNPARKACSASSKIRRLSACKQQ

Variants of: B1
Assay: STK11 functional score (HeLa growth suppression), rescaled enrichment; synonymous median = 1, nonsense median = 0 (normalised score)
Conditions: with HeLa; variant type: missense
Outline: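 The values are functional scores: wild-type-corrected log ratios of post- versus pre-selection abundance, rescaled to synonymous and nonsense medians, merged over codons and replicate transfections, and carrying bootstrapped error. They derive from codon-randomised (POPCode), codon-optimised STK11 libraries that Bxb1 integrated at an AAVS1 landing pad in HeLa, with three transfections for each of three regions. Sequencing of tiled gDNA amplicons ran on NextSeq, at ~2 million reads per tile.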

Row | Variant | STK11 functional score
1 | MEVVDPQQLGMFTEGELMSVGMDTFIHRIDSTEVIYQPRRKRAKLIGKYLMGDLLGEGSYGKVKEVLDSQTLCRRAVKILKKKKLRRIPNGEANVKKEIQLLRRLRHKNVIQLVDVLYNEEKQKMYMVMEYCVCGMQEMLDSVPEKRFPVCQAHGYFCQLIDGLEYLHSQGIVHKDIKPGNLLLTTGGTLKISDLGVAEALHPFAADDTCRTSQGSPAFQPPEIANGLDTFSGFKVDIWSAGVTLYNITTGLYPFEGDNIYKLFENIGKGSYAIPGDCGPPLSDLLKGMLEYEPAKRFSIRQIRQHSWFRKKHPPAEAPVPIPPSPDTKDRWRSMTVVPYLEDLHGADEDEDLFDIEDDIIYTQDFTVPGQVPEEEASHNGQRRGLPKAVCMNGTEAAQLSTKSRAEGRAPNPARKACSASSKIRRLSACKQQ [E70Q] | 0.703 ± 0.26
2 | MEVVDPQQLGMFTEGELMSVGMDTFIHRIDSTEVIYQPRRKRAKLIGKYLMGDLLGEGSYGKVKEVLDSETLCRRAVKILKKKKLRRIPNGEANVKKEIQLLRRLRHKNVIQLVDVLYNEEKQKMYMVMEYCVCGMQEMLDSVPEKRFPVCQDHGYFCQLIDGLEYLHSQGIVHKDIKPGNLLLTTGGTLKISDLGVAEALHPFAADDTCRTSQGSPAFQPPEIANGLDTFSGFKVDIWSAGVTLYNITTGLYPFEGDNIYKLFENIGKGSYAIPGDCGPPLSDLLKGMLEYEPAKRFSIRQIRQHSWFRKKHPPAEAPVPIPPSPDTKDRWRSMTVVPYLEDLHGADEDEDLFDIEDDIIYTQDFTVPGQVPEEEASHNGQRRGLPKAVCMNGTEAAQLSTKSRAEGRAPNPARKACSASSKIRRLSACKQQ [A153D] | -0.157 ± 0.1
3 | MEVVDPQQLGMFTEGELMSVGMDTFIHRIDSTEVIYQPRRKRAKLIGKYLMGDLLGEGSYGKVKEVLDSETLCRRAVKILKKKKLRRIPNGEANVSKEIQLLRRLRHKNVIQLVDVLYNEEKQKMYMVMEYCVCGMQEMLDSVPEKRFPVCQAHGYFCQLIDGLEYLHSQGIVHKDIKPGNLLLTTGGTLKISDLGVAEALHPFAADDTCRTSQGSPAFQPPEIANGLDTFSGFKVDIWSAGVTLYNITTGLYPFEGDNIYKLFENIGKGSYAIPGDCGPPLSDLLKGMLEYEPAKRFSIRQIRQHSWFRKKHPPAEAPVPIPPSPDTKDRWRSMTVVPYLEDLHGADEDEDLFDIEDDIIYTQDFTVPGQVPEEEASHNGQRRGLPKAVCMNGTEAAQLSTKSRAEGRAPNPARKACSASSKIRRLSACKQQ [K96S] | 1.11 ± 0.12
4 | MEVVDPQQLGMFTEGELMSVGMDTFIHRIDSTEVIYQPRRKRAKLIGKYLMGDLLGEGSYGKVKEVLDSETLCRRAVKILKKKKLRRIPNGEANVKKEIQLIRRLRHKNVIQLVDVLYNEEKQKMYMVMEYCVCGMQEMLDSVPEKRFPVCQAHGYFCQLIDGLEYLHSQGIVHKDIKPGNLLLTTGGTLKISDLGVAEALHPFAADDTCRTSQGSPAFQPPEIANGLDTFSGFKVDIWSAGVTLYNITTGLYPFEGDNIYKLFENIGKGSYAIPGDCGPPLSDLLKGMLEYEPAKRFSIRQIRQHSWFRKKHPPAEAPVPIPPSPDTKDRWRSMTVVPYLEDLHGADEDEDLFDIEDDIIYTQDFTVPGQVPEEEASHNGQRRGLPKAVCMNGTEAAQLSTKSRAEGRAPNPARKACSASSKIRRLSACKQQ [L102I] | 1.26 ± 0.2
5 | MEVVDPQQLGMFTEGELMSVGMDTFIHRIDSTEVIYQPRRKRAKLIGKYLMGDLLGEGSYGKVKEVLDSETLCRRAVKILKKKKLRRIPNGEANVKKEIQLLRRLRHKNVIQLVDVLYNEEKQKMYMVMEYCVCGMQEMLDSVPEKRFPVCQAHGYFCQLIDGLEYLHSQGIVHKDIKPGNLLLTTGGTLKISDLGVAEALHPFAADDTCRTSQGSPAFQPPEIANGLDTFSGFKVDIWSAGVTLYNITTGLYPFEGDNIYKLFENIGKGSYAIPGDCGPPLSDLLKGMLEYEPAKRFSIRQIRQHSWFRKKHPPAEAPVPIPPSPDTKDRWRSMTVVPYLEDLHGADEDEDLFDIEDDIIYTQDFTVPGQVPEEEASHNGQRRGLPKAVCMNGTEAAQLSTKSRAEGRAPNPARKACSASSCIRRLSACKQQ [K423C] | 1.58 ± 0.16
6 | MEVVDPQQLGMFTEGELMSVGMDTFIHRIDSTEVIYQPRRKRAKLIGKYLMGDLLGEGSYGKVKEVLDSETLCRRAVKILKKKKLRRIPNGEANVKKEIQLLRRLRHKNVIQLVDVLYNEEKQKMYMVMEYCVCGMQEMLDSVPEKRFPVCQAHGYFCQLIDGLEYLHSQGIVHKDIKPGNLLLTTGGTLKISDLGVAEALHPFAADDTCRTSQGSPYFQPPEIANGLDTFSGFKVDIWSAGVTLYNITTGLYPFEGDNIYKLFENIGKGSYAIPGDCGPPLSDLLKGMLEYEPAKRFSIRQIRQHSWFRKKHPPAEAPVPIPPSPDTKDRWRSMTVVPYLEDLHGADEDEDLFDIEDDIIYTQDFTVPGQVPEEEASHNGQRRGLPKAVCMNGTEAAQLSTKSRAEGRAPNPARKACSASSKIRRLSACKQQ [A218Y] | 1.34 ± 0.17
7 | MEVVDPQQLGMFTEGELMSVGMDTFIHRIDSTEVIYQPRRKRAKLIGKYLMGDLLGEGSYGKVKEVLDSETLCRRAVKILKKKKLRRIPNGEANVKKEIQLLRRLRHKNVIQLVDVLYNEEKQKMYMVMEYCVCGMQEMLDSVPEKRFPVCQAHGYFCQLIDGLEYLHSHGIVHKDIKPGNLLLTTGGTLKISDLGVAEALHPFAADDTCRTSQGSPAFQPPEIANGLDTFSGFKVDIWSAGVTLYNITTGLYPFEGDNIYKLFENIGKGSYAIPGDCGPPLSDLLKGMLEYEPAKRFSIRQIRQHSWFRKKHPPAEAPVPIPPSPDTKDRWRSMTVVPYLEDLHGADEDEDLFDIEDDIIYTQDFTVPGQVPEEEASHNGQRRGLPKAVCMNGTEAAQLSTKSRAEGRAPNPARKACSASSKIRRLSACKQQ [Q170H] | 0.738 ± 0.12
